Laboratory results: patent publication CN116615457A (ICONOSCO S A, dated 2023)
Each block holds one binder with its values, some of them ahead of it.

Experiments:
[1] = biological target: T1, 膜结合的小鼠IL-1RAP (NIH-3T3细胞) (mouse, UniProt Q61730 21-570); assay: flow cytometry (Fig. 11 legend)
T1 construct: whole, on cells; also called mouse IL-1RAP on NIH-3T3 cells
T1 sequence (looked up): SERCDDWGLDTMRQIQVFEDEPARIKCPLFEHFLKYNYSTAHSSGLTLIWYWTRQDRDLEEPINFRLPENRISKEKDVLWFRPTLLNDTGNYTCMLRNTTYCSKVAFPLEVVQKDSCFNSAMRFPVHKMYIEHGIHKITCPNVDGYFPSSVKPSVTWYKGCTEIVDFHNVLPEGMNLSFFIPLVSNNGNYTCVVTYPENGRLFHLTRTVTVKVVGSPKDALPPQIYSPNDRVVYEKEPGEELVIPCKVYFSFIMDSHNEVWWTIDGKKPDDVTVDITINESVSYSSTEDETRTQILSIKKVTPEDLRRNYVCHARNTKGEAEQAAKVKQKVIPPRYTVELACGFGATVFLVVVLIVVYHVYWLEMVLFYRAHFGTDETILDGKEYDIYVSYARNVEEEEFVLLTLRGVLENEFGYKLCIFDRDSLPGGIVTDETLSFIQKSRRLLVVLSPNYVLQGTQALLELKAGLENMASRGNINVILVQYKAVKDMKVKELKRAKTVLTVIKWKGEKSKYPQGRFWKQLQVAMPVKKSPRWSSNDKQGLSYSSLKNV

[2] = biological target: T2, 重组食蟹猴IL-1RAP-ECD(S21-E359)-avi-his蛋白 (cynomolgus monkey, UniProt P59822 21-359 (rhesus entry), biotinylated in the Fab SPR assay); assay: SPR; KD on cynomolgus IL-1RAP against KD on human IL-1RAP
T2 construct: also called 食蟹猴IL-1RAP-ECD-Avi-His; 重组食蟹猴IL-1RAP-avi-his蛋白
T2 sequence: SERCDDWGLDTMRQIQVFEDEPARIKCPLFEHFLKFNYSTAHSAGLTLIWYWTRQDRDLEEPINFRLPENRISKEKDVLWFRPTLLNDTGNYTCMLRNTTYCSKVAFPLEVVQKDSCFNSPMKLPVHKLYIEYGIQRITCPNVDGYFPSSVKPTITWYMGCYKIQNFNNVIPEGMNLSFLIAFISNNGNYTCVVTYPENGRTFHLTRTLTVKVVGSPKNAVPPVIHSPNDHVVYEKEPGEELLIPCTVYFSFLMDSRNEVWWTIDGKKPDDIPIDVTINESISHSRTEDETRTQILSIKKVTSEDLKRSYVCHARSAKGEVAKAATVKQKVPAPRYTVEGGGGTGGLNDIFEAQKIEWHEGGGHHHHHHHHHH

[3] = biological target: T2, 重组食蟹猴IL-1RAP-ECD(S21-E359)-avi-his蛋白; assay: SPR; IgG1 LALA captured on anti-human IgG Fc chip, cynomolgus IL-1RAP-avi-his as analyte
[4] = biological target: T3, 重组人IL-1RAP-ECD(S21-E359)-avi-his蛋白 (human, UniProt Q9NPH3 21-359, biotinylated in the BLI binning assay); assay: SPR; IgG1 LALA captured on anti-human IgG Fc chip, human IL-1RAP-avi-his as analyte
T3 construct: also called 人IL-1RAP-ECD-Avi-His; 重组人IL-1RAP-avi-his蛋白
T3 sequence: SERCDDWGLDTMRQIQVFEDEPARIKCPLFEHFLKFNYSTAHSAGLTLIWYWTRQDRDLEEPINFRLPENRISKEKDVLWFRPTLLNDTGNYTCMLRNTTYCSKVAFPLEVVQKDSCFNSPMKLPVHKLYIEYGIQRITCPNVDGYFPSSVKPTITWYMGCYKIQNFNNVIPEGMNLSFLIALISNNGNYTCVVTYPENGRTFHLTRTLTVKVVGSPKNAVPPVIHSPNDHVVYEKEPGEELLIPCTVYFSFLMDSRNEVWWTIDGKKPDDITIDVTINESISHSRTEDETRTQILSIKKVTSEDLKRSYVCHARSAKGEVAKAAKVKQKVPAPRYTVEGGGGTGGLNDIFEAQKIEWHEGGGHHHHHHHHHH

binding result [1]: binds
B1: 抗IL-1RAP-C3-A3-mmIgG2a-LALA (antibody, V domains shown)
VH: EVQLLESGGGLVQPGGSLRLSCAASGFIFSHYGMSWVRQAPGKGLEWVSAISYDGEGTLYADSVKGRFTISRDNSKNTLYLQMNSLRAEDTAVYYCARFRYYTAFDYWGQGTLVTVSS
VL: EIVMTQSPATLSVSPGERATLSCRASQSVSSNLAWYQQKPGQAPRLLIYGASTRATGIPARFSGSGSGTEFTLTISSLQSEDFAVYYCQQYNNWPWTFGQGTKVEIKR
notes: Mouse IgG2a LALA; also called 抗IL-1RAP-C3-A3小鼠IgG2a LALA; 抗IL-1RAP-C3-A3克隆

fold lower affinity than for human IL-1RAP [2]: ~40 fold
B2: 抗IL-1RAP-UCP02-C3 Fab (Fab, V domains shown)
VH: EVQLLESGGGLVQPGGSLRLSCAASGFTFRDYAMGWVRQAPGKGLEWVSAISYDGEGTLYADSVKGRFTISRDNSKNTLYLQMNSLRAEDTAVYYCARFRYYTAFDYWGQGTLVTVSS
VL: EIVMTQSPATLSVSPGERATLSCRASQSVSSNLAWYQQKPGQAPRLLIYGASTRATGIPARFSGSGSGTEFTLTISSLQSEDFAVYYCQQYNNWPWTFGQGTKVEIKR
notes: also called 抗IL-1RAP-C3; 抗IL-1RAP-C3 Fab

binding result [3]: binds
binding result [4]: binds
B3: 抗IL-1RAP-C8-RecC IgG1 LALA (antibody, V domains shown)
VH: QVQLVQSGAEVKKPGSSVKVSCKASGSPAEPYAIQWVRQAPGQGLEWMGYIIPSLGGYDYAQKFQGRVTITADESTSTAYMELSSLRSEDTAVYYCARGQTLYDSGRQFDIWGQGTLVTVSS
VL: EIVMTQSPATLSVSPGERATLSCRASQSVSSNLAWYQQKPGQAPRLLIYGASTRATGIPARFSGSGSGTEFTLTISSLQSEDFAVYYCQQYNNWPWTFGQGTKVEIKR
notes: Human IgG1 LALA format; also called 亲本克隆抗IL-1RAP-C8-RecC; anti-IL-1RAP-C8-RecC IgG1 LALA
